Experimental findings from publication PMC12746484, “Growth-coupled selection of 5-aminolevulinic acid synthetase mutants for 5-aminolevulinic acid biosynthesis in Corynebacterium glutamicum” (Frontiers in Microbiology, 2025) are described below.

In data set [1] the test system is T1, CC(C)(COP(=O)(O)OP(=O)(O)OC[C@H]1O[C@@H](n2cnc3c(N)ncnc32)[C@H](O)[C@@H]1OP(=O)(O)O)[C@@H](O)C(=O)NCCC(=O)NCCSC(=O)CCC(=O)O.
T1 construct: codon-optimized hemA cloned in pET28a, expressed in E. coli BL21(DE3), Ni-NTA purified
Put plainly: steady-state kinetics, 5-ALA formation, nonlinear Michaelis-Menten fit. The data set is classed as biochemical, Rhodobacter capsulatus. As to conditions: 37 °C, Tris pH 7.5, pyridoxal phosphate, co-substrate glycine, succinyl-CoA 5-150 μM. The source says:
(§1) steady-state kinetics, 5-ALA formation, nonlinear Michaelis-Menten fit on ALAS from Rhodobacter capsulatus SB1003 (hemA^Rc; pET28a-SB)

Data set [2] deals with T2, NCC(=O)O.
T2 construct: codon-optimized hemA cloned in pET28a, expressed in E. coli BL21(DE3), Ni-NTA purified
The data set is described as above. The data set is classed as biochemical, Rhodobacter capsulatus. As to conditions: 37 °C, Tris pH 7.5, pyridoxal phosphate, co-substrate succinyl-CoA, glycine 1-40 mM.
Text: as §1

By Km is commonly meant the concentration of substrate that gives half-maximal velocity. Broadly, the kcat is the maximal rate divided by the concentration of active sites. In general, kcat/Km refers to the second-order rate constant that governs catalysis at low substrate concentration.

ALAS from Rhodobacter capsulatus SB1003 (hemA^Rc; pET28a-SB) (Rhodobacter capsulatus SB 1003; E27V/F363Y/G105C), sequence (chain, as listed by the source E27V F363Y G105C): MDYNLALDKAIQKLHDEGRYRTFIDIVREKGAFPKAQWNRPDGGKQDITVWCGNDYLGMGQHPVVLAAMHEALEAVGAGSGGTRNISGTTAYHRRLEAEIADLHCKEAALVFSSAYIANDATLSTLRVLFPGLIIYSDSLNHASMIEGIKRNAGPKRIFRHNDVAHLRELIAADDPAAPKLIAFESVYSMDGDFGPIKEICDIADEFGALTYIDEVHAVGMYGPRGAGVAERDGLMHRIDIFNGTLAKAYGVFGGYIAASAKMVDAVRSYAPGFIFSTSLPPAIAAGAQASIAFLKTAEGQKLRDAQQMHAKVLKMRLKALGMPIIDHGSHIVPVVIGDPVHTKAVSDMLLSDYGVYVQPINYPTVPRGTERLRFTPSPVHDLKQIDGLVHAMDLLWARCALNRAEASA
ALAS from Rhodobacter capsulatus SB1003 (hemA^Rc; pET28a-SB) (Rhodobacter capsulatus SB 1003), sequence (chain, as listed by the source): as the sequence (chain, as listed by the source E27V F363Y G105C) above, with V27E, C105G, Y363F counted along it

In the case of “ALAS from Rhodobacter capsulatus SB1003 (hemA^Rc; pET28a-SB) (Rhodobacter capsulatus SB 1003)”, in data set [1], the Km amounted to 17.5 ± 2.65 µM, the kcat turned out to be 2.52 ± 0.22 s⁻¹ and the kcat/Km was 140000 ± 30000 M⁻¹ s⁻¹. Besides, in data set [2], the Km is 2660 ± 260 µM, the kcat was 2.52 ± 0.22 s⁻¹ and the kcat/Km was found to be 950 ± 230 M⁻¹ s⁻¹.

For the substance “ALAS from Rhodobacter capsulatus SB1003 (hemA^Rc; pET28a-SB) (Rhodobacter capsulatus SB 1003; E27V/F363Y/G105C)”, in data set [1], the Km is 16.88 ± 2.21 µM, the kcat stood at 2.94 ± 0.15 s⁻¹ and the kcat/Km came out at 170000 ± 20000 M⁻¹ s⁻¹. Also, in data set [2], the Km came out at 2130 ± 220 µM, the kcat was 2.94 ± 0.15 s⁻¹ and the kcat/Km was found to be 1270 ± 180 M⁻¹ s⁻¹.
